Values belong to the binder of their own block, whether it stands above or below them.
Assays:
[1] = molecular target: T1, polymorphic epithelial mucin (PEM) (human, UniProt P15941); experiment: order of binding activity from all the direct binding ELISA assays on PEM
[2] = molecular target: T1, polymorphic epithelial mucin (PEM); experiment: direct binding ELISA, PEM-coated microwell plates, culture supernatant

binding result [1]: binds
B1: gL1cH (CDR-grafted light chain gL1 with chimeric heavy chain; plasmids pAL47 and pHMC33) (antibody, V domains shown)
VH: QIQLQQSGPELVKPGASVKISCKASGYTFTDYYINWMKQKPGQGLEWIGWIDPGSGNTKYNEKFKGKATLTVDTSSSTAYMQLSSLTSEDTAVYFCAREKTTYYYAMDYWGQGTSVTVS
VL: DIQMTQSPSTLSASVGDRVTITCRSSKSLLHSNGDTFLYWFQQKPGKAPKLLMYRMSNLASGVPSRFSGSGSGTEFTLTISSLQPDDFATYYCMQHLEYPFTFGQGTKVEVKR

binding result [2]: binds
B2: cLgH2 (chimeric light chain with CDR-grafted heavy chain gH2; plasmids pAL52 and pAL41) (antibody, V domains shown)
VH: QIQLVQSGAEVKKPGSSVKVSCKASGYTFTDYYINWMRQAPGQGLEWIGWIDPGSGNTKYNEKFKGRATLTVDTSTNTAYMELSSLRSEDTAFYFCAREKTTYYYAMDYWGQGTLVTVSS
VL: DIVMTQAAPSVPVTPGESLSISCRSSKSLLHSNGDTFLYWFLQRPGQSPQLLIYRMSNLASGVPDRFSGSGSGTAFTLRVSRVEAEDVGVYYCMQHLEYPFTFGAGTKLELKR
